{
  "source": "paper PMC10690772",
  "molecular_target": "ConCv5 KIKO 473T SOSIP soluble gp140 Env trimer (HIV-1 (clade C consensus))",
  "experiment": "SEC; analytical size exclusion chromatography of 10 µg of the final purified protein pool",
  "data": [
    {"substance": "ConCv5 KIKO 473T SOSIP soluble gp140 Env trimer (complex)", "values": [
      {"measurement": "stoichiometry N", "result": 3}
    ]}
  ]
}
